In assay [1] the target is plasma membrane preparation from adult rat kidney. Description: [125I]rhBMP-9 displacement profile on rat kidney plasma membranes.
The target of assay [2] is BMP-9 receptors expressed on HepG2 cells (ATCC HB8065). The experiment in a line: 125I-BMP-9 binding to HepG2 cells, high affinity sites.
For assay [3], the target named is plasma membrane preparation from adult rat lung. The experiment in a line: [125I]rhBMP-9 displacement profile on rat lung plasma membranes.
For assay [4], the target named is BMP-9 receptors expressed on HepG2 cells (ATCC HB8065).
Assay [5] has the same target. The experiment in a line: 125I-BMP-9 binding to confluent HepG2 cells, displacement by unlabelled BMP-9, Scatchard analysis.

B1: recombinant human BMP-9 (CHO-derived, mature) (ligand)
chain: TRECSRSCPRTAPQRQVRAVTRRTRMAHVAAGSTLARRKRSAGAGSHCQKTSLRVNFEDIGWDSWIIAPKEYEAYECKGGCFFPLADDVTPTKHAIVQTLVHLKFPTKVG
modifications: 125I-iodinated as tracer; unlabelled BMP-9 used as the displacing ligand
What is called Kd is a measure of binding affinity in units of concentration. As for B1, the Kd in assay [1] was 300 pM; in assay [2], 270 pM; in assay [3], 600 pM; in assay [5], 300 pM. This molecule also gave a 3H-thymidine incorporation in HepG2 cells in assay [4] of 5 fold. Besides, the ED50 of 3H-thymidine incorporation in HepG2 cells in assay [4] came out at 10 ng/mL.

The values are drawn from US6034062.
